According to patent publication JP2022109630A:

Legend:
Experiment in all cases: ELISA, immobilised recombinant L7/L12 (10 ng/mL), antibody 10 ug/mL
[1] = target: レジオネラ・ニューモフィラ(LP)のリボソームタンパク質L7/L12 (レジオネラ・ニューモフィラ (Legionella pneumophila))
[2] = target: クレブシエラ・ニューモニエ(KP)のリボソームタンパク質L7/L12 (クレブシエラ・ニューモニエ (Klebsiella pneumoniae))
[3] = target: リステリア・モノサイトゲネス(LM)のリボソームタンパク質L7/L12 (リステリア・モノサイトゲネス (Listeria monocytogenes))
[4] = target: モラキセラ菌(MC)のリボソームタンパク質L7/L12 (モラキセラ菌 (Moraxella catarrhalis))
[5] = target: 肺炎マイコプラズマ(MP)のリボソームタンパク質L7/L12 (肺炎マイコプラズマ (Mycoplasma pneumoniae))
[6] = target: サルモネラ菌(SE)のリボソームタンパク質L7/L12 (サルモネラ菌 (Salmonella enteritidis))
[7] = target: 黄色ブドウ球菌(SA)のリボソームタンパク質L7/L12 (黄色ブドウ球菌 (Staphylococcus aureus))
[8] = target: 肺炎球菌(SP)のリボソームタンパク質L7/L12 (肺炎球菌 (Streptococcus pneumoniae))
[9] = target: 溶連菌(SPY)のリボソームタンパク質L7/L12 (溶連菌 (Streptococcus pyogenes))
[10] = target: 百日咳菌(BP)のリボソームタンパク質L7/L12 (百日咳菌 (Bordetella pertussis))
[11] = target: 肺炎クラミジア(CP)のリボソームタンパク質L7/L12 (肺炎クラミジア (Chlamydia pneumoniae))
[12] = target: 髄膜炎菌(NM)のリボソームタンパク質L7/L12 (髄膜炎菌 (Neisseria meningitidis))
[13] = target: 淋菌(NG)のリボソームタンパク質L7/L12 (淋菌 (Neisseria gonorrhoeae))
[14] = target: クラミジア・トラコマチス(CT)のリボソームタンパク質L7/L12 (クラミジア・トラコマチス (Chlamydia trachomatis))
[15] = target: 緑膿菌(PA)のリボソームタンパク質L7/L12 (緑膿菌 (Pseudomonas aeruginosa))
[16] = target: カンピロバクター・ジェジュニ(CJ)のリボソームタンパク質L7/L12 (カンピロバクター・ジェジュニ (Campylobacter jejuni))

Measured: absorbance at 450 nm (absorbance (450 nm))

B1: 汎用性抗体A(PA51B2) (antibody, V domains shown)
VH: QVQLQQPGSVLVRPGASVKLSCKPSGYTFTGSWMHWTKQRPGQGLEWIGEIHPYSGNTNYNEKFRVKATLTVDTSSSTTYVDLSSLTSDDSAVYYCASGDFDAGFTYWGQGTLVTVSA
VL: DIVLTQSPASLAVSLGRRATISCKASQSVDYDGDSYMNWYQQKPGQPPKLLIYVASNLESGIPARFSGSGSGTDFTLNIHPVEEEDAATYYCQQTNEDPFTFGAGTKLELK
> 0.3: [1]

B2: 汎用性抗体C(CP141A190.1) (antibody, V domains shown)
VH: QVQLQQPGAELVKPGASVKLSCKTSGYNFTSNWIHWVKQRPGQGLEWIGEINPSNGRANYNEKFKNKATLTVDKSSSTAFMHLSSLTSEDSAVYFCSRGDFDEGFTYWGQGTLVTVSA
VL: QIVLTQSPAIMSASLGERVTMTCTASSNVNSDYLHWYQQKPGSSPRLWIYTTSNLASGVPTRFSGNGSGTSYSLTISSMEAEDAATYYCHQYHRSPRTFGGGTKLEIK
> 0.3: [1]

B3: 汎用性抗体B(LP54A3) (antibody, V domains shown)
VH: EVQLQQSGAELVKPGASVRLSCSASGFNIKDTYMHWMRQRPEQGLEWIGRIDPANGNAKYDPKFQVKATITADTSSNTASLQFSSLTSEDTAVYFCASESLDDMYYFDYWGQGTTLTVSS
VL: DIVMTQSQKFMSTSVGDRVSVTCKASQNVGVNVAWYQQKPGQSPKALIYSASYRYSGVPDRFTGSGSGTDFTLTISNVQSEDLAEYFCQQYHSYLYTFGGGTKLEIK
> 0.3: all assays above
